Data published in patent US20220175895A1 (ACADEMIA SINICA, published 2022).

Experiments:
[1] = target: Flag-VPS34 previously ubiquitinated in vitro by UBE3C, Q8NEB9
endogenous VPS34 = target: T1, endogenous VPS34 (UniProt Q8NEB9 1-887); assay: co-immunoprecipitation from 293T cells (FIG. 2I)
T1 construct: also called vacuolar protein sorting 34; PI3 Kinase Class III

Rubicon = target: T2, Rubicon (UniProt Q92622 1-972, limits assumed); assay: immunoprecipitation in 293T cells transfected with Flag-TRABID, fed or starved 2 h (FIG. 2R)
T2 sequence (looked up): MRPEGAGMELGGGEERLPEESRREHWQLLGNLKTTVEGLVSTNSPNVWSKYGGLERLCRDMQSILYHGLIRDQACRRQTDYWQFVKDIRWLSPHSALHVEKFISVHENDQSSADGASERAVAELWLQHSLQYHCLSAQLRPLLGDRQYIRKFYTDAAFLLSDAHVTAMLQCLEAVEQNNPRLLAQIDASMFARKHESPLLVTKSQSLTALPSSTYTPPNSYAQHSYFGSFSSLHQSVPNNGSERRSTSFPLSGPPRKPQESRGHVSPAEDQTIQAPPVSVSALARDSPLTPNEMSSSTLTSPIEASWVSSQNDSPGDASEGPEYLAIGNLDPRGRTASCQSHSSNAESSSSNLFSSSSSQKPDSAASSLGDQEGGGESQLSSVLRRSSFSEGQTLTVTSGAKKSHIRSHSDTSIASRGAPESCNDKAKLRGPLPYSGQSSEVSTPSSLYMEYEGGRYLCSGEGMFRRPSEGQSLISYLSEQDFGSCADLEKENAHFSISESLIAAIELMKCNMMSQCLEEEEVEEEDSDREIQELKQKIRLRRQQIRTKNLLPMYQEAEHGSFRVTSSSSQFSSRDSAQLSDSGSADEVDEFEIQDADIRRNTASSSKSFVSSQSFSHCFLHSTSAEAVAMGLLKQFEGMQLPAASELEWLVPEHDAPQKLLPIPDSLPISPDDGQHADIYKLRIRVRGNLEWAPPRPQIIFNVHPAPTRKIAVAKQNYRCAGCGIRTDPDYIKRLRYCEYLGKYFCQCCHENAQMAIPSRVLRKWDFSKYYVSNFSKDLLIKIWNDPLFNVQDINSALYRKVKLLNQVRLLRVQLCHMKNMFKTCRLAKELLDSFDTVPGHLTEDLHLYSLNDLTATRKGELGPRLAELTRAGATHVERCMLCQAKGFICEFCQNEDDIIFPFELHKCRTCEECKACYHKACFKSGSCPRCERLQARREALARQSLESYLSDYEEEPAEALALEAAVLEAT

T1 sequence (Q8NEB9 whole entry): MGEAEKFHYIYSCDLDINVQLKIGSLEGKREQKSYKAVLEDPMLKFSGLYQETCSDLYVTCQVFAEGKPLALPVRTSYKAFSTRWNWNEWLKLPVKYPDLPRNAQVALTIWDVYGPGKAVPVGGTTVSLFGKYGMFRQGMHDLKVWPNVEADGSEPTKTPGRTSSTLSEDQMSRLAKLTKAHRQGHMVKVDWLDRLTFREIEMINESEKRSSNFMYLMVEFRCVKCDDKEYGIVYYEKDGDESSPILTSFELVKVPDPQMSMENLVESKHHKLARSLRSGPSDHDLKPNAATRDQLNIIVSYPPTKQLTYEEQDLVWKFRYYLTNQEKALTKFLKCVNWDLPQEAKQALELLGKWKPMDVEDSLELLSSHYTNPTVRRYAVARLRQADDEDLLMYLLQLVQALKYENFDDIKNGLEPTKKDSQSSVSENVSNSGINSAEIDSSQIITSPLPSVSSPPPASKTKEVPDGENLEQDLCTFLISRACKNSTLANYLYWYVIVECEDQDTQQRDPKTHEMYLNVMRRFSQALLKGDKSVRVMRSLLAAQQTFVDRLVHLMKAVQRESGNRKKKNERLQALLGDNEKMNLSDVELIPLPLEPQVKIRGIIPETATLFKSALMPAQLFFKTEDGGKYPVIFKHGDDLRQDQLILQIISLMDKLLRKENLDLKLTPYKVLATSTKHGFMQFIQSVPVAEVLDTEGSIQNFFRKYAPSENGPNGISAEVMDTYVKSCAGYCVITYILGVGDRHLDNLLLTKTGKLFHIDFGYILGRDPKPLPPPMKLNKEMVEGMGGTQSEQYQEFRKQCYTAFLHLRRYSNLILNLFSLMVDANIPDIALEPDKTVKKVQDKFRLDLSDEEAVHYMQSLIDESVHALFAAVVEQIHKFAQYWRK
Sequence of Flag-VPS34 previously ubiquitinated in vitro by UBE3C, Q8NEB9 (Q8NEB9 whole entry, looked up): as the sequence (Q8NEB9 whole entry) above
Sequence of Flag-VPS34, Q8NEB9 (Q8NEB9 whole entry, looked up): as the sequence (Q8NEB9 whole entry) above

B1: purified TRABID (Boston Biochem; E-560) (protein)
chain: MSERGIKWACEYCTYENWPSAIKCTMCRAQRPSGTIITEDPFKSGSSDVGRDWDPSSTEGGSSPLICPDSSARPRVKSSYSMENANKWSCHMCTYLNWPRAIRCTQCLSQRRTRSPTESPQSSGSGSRPVAFSVDPCEEYNDRNKLNTRTQHWTCSVCTYENWAKAKRCVVCDHPRPNNIEAIELAETEEASSIINEQDRARWRGSCSSGNSQRRSPPATKRDSEVKMDFQRIELAGAVGSKEELEVDFKKLKQIKNRMKKTDWLFLNACVGVVEGDLAAIEAYKSSGGDIARQLTADEVRLLNRPSAFDVGYTLVHLAIRFQRQDMLAILLTEVSQQAAKCIPAMVCPELTEQIRREIAASLHQRKGDFACYFLTDLVTFTLPADIEDLPPTVQEKLFDEVLDRDVQKELEEESPIINWSLELATRLDSRLYALWNRTAGDCLLDSVLQATWGIYDKDSVLRKALHDSLHDCSHWFYTRWKDWESWYSQSFGLHFSLREEQWQEDWAFILSLASQPGASLEQTHIFVLAHILRRPIIVYGVKYYKSFRGETLGYTRFQGVYLPLLWEQSFCWKSPIALGYTRGHFSALVAMENDGYGNRGAGANLNTDDDVTITFLPLVDSERKLLHVHFLSAQELGNEEQQEKLLREWLDCCVTEGGVLVAMQKSSRRRNHPLVTQMVEKWLDRYRQIRPCTSLSDGEEDEDDEDE
in vitro deubiquitination assay, Western blot of total and K48 ubiquitin linkages on VPS34 (FIG. 2K) [1]: purified TRABID was capable of reducing the total and K48 ubiquitin linkages from this VPS34 in vitro

B2: HA-UBE3C (protein)
chain: MFSFEGDFKTRPKVSLGGASRKEEKASLLHRTQEERRKREEERRRLKNAIIIQSFIRGYRDRKQQYSIQRSAFDRCATLSQSGGAFPIANGPNLTLLVRQLLFFYKQNEDSKRLIWLYQNLIKHSSLFVKQLDGSERLTCLFQIKRLMSLCCRLLQNCNDDSLNVALPMRMLEVFSSENTYLPVLQDASYVVSVIEQILHYMIHNGYYRSLYLLINSKLPSSIEYSDLSRVPIAKILLENVLKPLHFTYNSCPEGARQQVFTAFTEEFLAAPFTDQIFHFIIPALADAQTVFPYEPFLNALLLIESRCSRKSGGAPWLFYFVLTVGENYLGALSEEGLLVYLRVLQTFLSQLPVSPASASCHDSASDSEEESEEADKPSSPEDGRLSVSYITEECLKKLDTKQQTNTLLNLVWRDSASEEVFTTMASVCHTLMVQHRMMVPKVRLLYSLAFNARFLRHLWFLISSMSTRMITGSMVPLLQVISRGSPMSFEDSSRIIPLFYLFSSLFSHSLISIHDNEFFGDPIEVVGQRQSSMMPFTLEELIMLSRCLRDACLGIIKLAYPETKPEVREEYITAFQSIGVTTSSEMQQCIQMEQKRWIQLFKVITNLVKMLKSRDTRRNFCPPNHWLSEQEDIKADKVTQLYVPASRHVWRFRRMGRIGPLQSTLDVGLESPPLSVSEERQLAVLTELPFVVPFEERVKIFQRLIYADKQEVQGDGPFLDGINVTIRRNYIYEDAYDKLSPENEPDLKKRIRVHLLNAHGLDEAGIDGGGIFREFLNELLKSGFNPNQGFFKTTNEGLLYPNPAAQMLVGDSFARHYYFLGRMLGKALYENMLVELPFAGFFLSKLLGTSADVDIHHLASLDPEVYKNLLFLKSYEDDVEELGLNFTVVNNDLGEAQVVELKFGGKDIPVTSANRIAYIHLVADYRLNRQIRQHCLAFRQGLANVVSLEWLRMFDQQEIQVLISGAQVPISLEDLKSFTNYSGGYSADHPVIKVFWRVVEGFTDEEKRKLLKFVTSCSRPPLLGFKELYPAFCIHNGGSDLERLPTASTCMNLLKLPEFYDETLLRSKLLYAIECAAGFELS
in vitro ubiquitination assay, Western blot of polyubiquitin chain on VPS34 (FIG. 3I) (Flag-VPS34, Q8NEB9): baculovirally purified UBE3C could assemble polyubiquitin chain on VPS34 purified from 293T cells

B3: endogenous TRABID (enzyme)
chain: MSERGIKWACEYCTYENWPSAIKCTMCRAQRPSGTIITEDPFKSGSSDVGRDWDPSSTEGGSSPLICPDSSARPRVKSSYSMENANKWSCHMCTYLNWPRAIRCTQCLSQRRTRSPTESPQSSGSGSRPVAFSVDPCEEYNDRNKLNTRTQHWTCSVCTYENWAKAKRCVVCDHPRPNNIEAIELAETEEASSIINEQDRARWRGSCSSGNSQRRSPPATKRDSEVKMDFQRIELAGAVGSKEELEVDFKKLKQIKNRMKKTDWLFLNACVGVVEGDLAAIEAYKSSGGDIARQLTADEVRLLNRPSAFDVGYTLVHLAIRFQRQDMLAILLTEVSQQAAKCIPAMVCPELTEQIRREIAASLHQRKGDFACYFLTDLVTFTLPADIEDLPPTVQEKLFDEVLDRDVQKELEEESPIINWSLELATRLDSRLYALWNRTAGDCLLDSVLQATWGIYDKDSVLRKALHDSLHDCSHWFYTRWKDWESWYSQSFGLHFSLREEQWQEDWAFILSLASQPGASLEQTHIFVLAHILRRPIIVYGVKYYKSFRGETLGYTRFQGVYLPLLWEQSFCWKSPIALGYTRGHFSALVAMENDGYGNRGAGANLNTDDDVTITFLPLVDSERKLLHVHFLSAQELGNEEQQEKLLREWLDCCVTEGGVLVAMQKSSRRRNHPLVTQMVEKWLDRYRQIRPCTSLSDGEEDEDDEDE
binding result (endogenous VPS34): binds

B4: Flag-TRABID (enzyme)
chain: MSERGIKWACEYCTYENWPSAIKCTMCRAQRPSGTIITEDPFKSGSSDVGRDWDPSSTEGGSSPLICPDSSARPRVKSSYSMENANKWSCHMCTYLNWPRAIRCTQCLSQRRTRSPTESPQSSGSGSRPVAFSVDPCEEYNDRNKLNTRTQHWTCSVCTYENWAKAKRCVVCDHPRPNNIEAIELAETEEASSIINEQDRARWRGSCSSGNSQRRSPPATKRDSEVKMDFQRIELAGAVGSKEELEVDFKKLKQIKNRMKKTDWLFLNACVGVVEGDLAAIEAYKSSGGDIARQLTADEVRLLNRPSAFDVGYTLVHLAIRFQRQDMLAILLTEVSQQAAKCIPAMVCPELTEQIRREIAASLHQRKGDFACYFLTDLVTFTLPADIEDLPPTVQEKLFDEVLDRDVQKELEEESPIINWSLELATRLDSRLYALWNRTAGDCLLDSVLQATWGIYDKDSVLRKALHDSLHDCSHWFYTRWKDWESWYSQSFGLHFSLREEQWQEDWAFILSLASQPGASLEQTHIFVLAHILRRPIIVYGVKYYKSFRGETLGYTRFQGVYLPLLWEQSFCWKSPIALGYTRGHFSALVAMENDGYGNRGAGANLNTDDDVTITFLPLVDSERKLLHVHFLSAQELGNEEQQEKLLREWLDCCVTEGGVLVAMQKSSRRRNHPLVTQMVEKWLDRYRQIRPCTSLSDGEEDEDDEDE
notes: not shown: Flag tag
binding result (Rubicon): no binding
